For the test, the target named is insulin lispro. Briefly: SEC-MALS. Background: Size exclusion chromatography separates by hydrodynamic size, large species first.

insulin lispro (ligand) gave a stoichiometry N of 6.

A word on the stoichiometry N: it is a count of units in the complex or per binding partner.

These data come from article PMC7716884.
